In patent US20110293610A1 (published 2011):
Residue numbers refer to the chain shown, from its start.

T1: TNF-beta (human, UniProt P01374 35-205)
T1 construct: also called TNFβ; Tumour Necrosis Factor-beta
T1 sequence (looked up): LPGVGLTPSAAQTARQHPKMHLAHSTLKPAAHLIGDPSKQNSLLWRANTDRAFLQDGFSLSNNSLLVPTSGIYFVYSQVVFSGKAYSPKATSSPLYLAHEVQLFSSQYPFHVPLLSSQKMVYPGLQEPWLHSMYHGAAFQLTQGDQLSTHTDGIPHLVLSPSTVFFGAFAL

T2: Fas ligand (human, UniProt P48023 134-281, limits assumed)
T2 sequence (looked up): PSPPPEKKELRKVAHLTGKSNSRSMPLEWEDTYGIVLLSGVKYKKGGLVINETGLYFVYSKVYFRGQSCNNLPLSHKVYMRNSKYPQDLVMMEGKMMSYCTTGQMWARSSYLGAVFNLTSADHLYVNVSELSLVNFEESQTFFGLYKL

B1: I022E02 (scFv)
scFv: QVQLVQSGAEVKKPGASVMVSCKASGYTFSTYAVHWVRQAPGQGLEWMGRINAGNGYTKYSQKFQGRVTITKDTSASAAYMELSSLGSEDTALYYCARATYDPLTGYSFDGLDIWGKGTMVTVSSGGGGSGGGGSGGGGSQSVLTQPASVSGSPGQSITISCTGTSSDVGGYNYVSWYQQHPGKAPKLMIYEGSKRPSGVSNRFSGSKSGNTASLTISGLQAEDEADYYCSSYTTRSTRVFGGGTKLTVLG
B2: I018C02 (scFv)
scFv: QVQLQQSGSELKKPGASVIVSCKVSGYSLTKMSMHWVRQSPGEGLEWVGGIDPETRQPVYAQKFQGRVTITKDTSASAAYMELSSLGSEDTALYYCARATYDPLTGYSFDGFDIWGQGTLVTVSSGGGGSGGGGSGGGGSQSVLTQPASVSGSPGQSITISCTGTSSDVGGYNYVSWYQQHPGKAPKLMIYEGSKRPSGVSNRFSGSKSGNTASLTISGLQAEDEADYYCSSYTTRSTRVFGGGTKLTVLG
B3: I029D07 (scFv)
scFv: QVQLQQSGAEVKKPGSSVKVSCKASGYTFTKYTMHWVRQAPGQGPEWMGWINGGSGDTKYSRKFQGRVTITKDTSASAAYMELSSLGSEDTALYYCARATYDPLTGYSFDGFDIWGQGTLVTVSSGGGGSGGGGSGGGGSQSVLTQPASVSGSPGQSITISCTGTSSDVGGYNYVSWYQQHPGKAPKLMIYDVSKRPSGVPDRFSGSKSGNTASLTISGLQAEDEGDYYCSSYAGPSRVFGGGTKVEIKR
B4: I016E05 (scFv)
scFv: QVQLQQSGAEVKKPGASVKVSCKASGYTFTKYTMHWVRQAPGQGPEWMGWINGGSGDTKYSRKFQGRVTITKDTSASAAYMELSSLGSEDTALYYCARATYDPLTGYSFDGFDIWGKGTMVTVSSGGGGSGGGGSGGGGSQSALTQPASVSGSPGQSITISCTGTSSDVGGYNYVSWYQQHPGKAPKLMIYEGSKRPSGVSNRFSGSKSGNTASLTISGLQAEDEADYYCSSYTTRSTRVFGGGTKLTVLG
B5: I018H09 (scFv)
scFv: B4 scFv with A79T, A143V
B6: I018H08 (scFv)
scFv: B4 scFv with K19N, K117Q, A143V, V249I
notes: also called 1018H08
B7: I006D07 (scFv)
scFv: EVQLVESGGGVVQPGGSLRLSCAASGFTVNSYAMHWVRQAPGKGLQWVAVIPYDGSKKYYADSVKGRFTVSRDNSKNTLYLQMNSLRAEDTAVYYCARSHYDILTGLNYWYFDLWGRGTLVTVSSGGGGSGGGGSGGGGSSELTQDPAVSVALGQTVRITCQGDSLRSYYASWYQQKPGQAPVLVIYGKNNRPSGIPDRFSGSSSGNTASLTITGAQAEDEADYYCNSRGSSGNHVVFGGGTKLTVLG
B8: I008C02 (scFv)
scFv: AVQLQESGPGLVKPSETLSLTCSVSGASMTTNKFYWSWIRQPPGKGLEWIGNINYSKSTNYNPSLKSRITISVDTSKNQLSLKLNSVTAADTAVYYCARHVRDYDILTGYYRGHYFDYWGQGTMVTVSSGGGGSGGGGSGGGGSQSVLTQPASVSGSPGQSITISCTGTSSDVGGYNYVSWYQQHPGKAPKLMIYEGSKRPSGVSNRFSGSKSGNTASLTISGLQAEDEADYYCSSYTTRSTRVFGGGTKLTVLG
B9: I061E07 (scFv)
scFv: QVQLQQSGAEVKKTGASVKVSCKASGYIFADYYVHWVRQAAGQGLEWMGWINPNTGSTKYAQKFQDRVTMTRDTSIKTVYMELRRLRSDDTALYYCARATYDPLTGYSFDGFDIWGKGTMVTVSSGGGGSGGGGSGGGGSQSVLTQPPSASGTPGQRVTISCSGSSSNIGSNTVNWYQRLPGAAPQLLIYNNDQRPSGIPDRFSGSKSGTSGSLVISGLQSEDEADYYCASWDDSLNGRVFGGGTKLTVLG
B10: I008B01 (scFv)
scFv: QVQLVQSGAEVMKPGASVKVSCKASGYNFNNYAMQWVRQAPGQRLEWMGWIVPGNGKTKYSQKFQDRVTIARDTSASTVYMELSSLTSEDTAMYYCARATYDPLTGYSFDGFDIWGQGTTVTVSSGGGGSGGGGSGGGGSQSVLTQPASVSGSPGQSITISCTGTSSDVGGYNYVSWYQQHPGKAPKLMIYEGSKRPSGVSNRFSGSKSGNTASLTISGLQAEDEADYYCSSYTTRSTRVFGGGTKLTVLG
B11: I001C09 (scFv)
scFv: GVQLVQSGPEVKKPGASVKVSCTASGYTFTSYGVSWVRQAPGQGLEWIGWISAHNGQTKYAEKFQGRVTMTRNTSISTAYMELSSLRSEDTAVYYCARDGSYDILTGYYIDNYMDVWGKGTMVTVSSGGGGSGGGGSGGGGSSELTQDPAVSVALGQTVRITCQGDSLRSYYTNWFQQKPGQAPLLVVYAKNKRPSGIPDRFSGSSSGNTASLTITGAQAEDEADYYCHSRDSSGNHVLFGGGTKLTVLG
B12: I018D07 (scFv)
scFv: B11 scFv with K19I
B13: I017D10 (scFv)
scFv: RVQLVQSGAEVKKPGASVKVSCKASGYTFTSDHISWVRQAPGQGLEWMGWISPHHGKTNYAQKLQGRVTMTTDTSTSTAYMELRSLRSDDTAVYYCARVQMDSEYYDLLTGINVGPYYFDYWGKGTLVTVSSGGGGSGGGGSGGGGSSELTQDPAVSVALGQTVRITCQGDSLRSYYASWYQQKPGQAPVLVIYGKNNRPSGIPDRFSGSSSGNTASLTITGAQAEDEADYYCNSRDSSGNHVVFGGGTKLTVLG
B14: I003F12S (scFv)
scFv: QVQLLQSAAELKKPGQSLKISCKGSGFTFTTYWIGWVRQLPGKGLEWMGIIYPGDSHTTYSPSFEGHVNISVDKSINTAYLQWSSLKASDTAMYYCARHDDDVLTGYYFESWGQGTMVTVSSGGGGSGGGGSGGGGSQSVLTQPASVSGSPGQSITISCTGTSSDVGGYNYVSWYQQHPGKAPKLMIYEGSKRPSGVSNRFSGSKSGNTASLTISGLQAEDEADYYCSSYTTRSTRVFGGGTKLTVLG

These binders were tested against T3, B Lymphocyte Stimulator, soluble form (human) (human, UniProt Q9Y275 134-285, biotinylated with NHS-biotin where used as biotinylated B Lymphocyte Stimulator) (assay: phage competition ELISA).
T3 construct: Coated on plastic, captured on streptavidin plates, amine-coupled to a CM5 chip or free in solution, depending on the assay; also called BLyS; immobilized B Lymphocyte Stimulator

binding result | Binder
binds | B1
binds | B2
binds | B3
binds | B4
binds | B5
binds | B6
binds | B7
binds | B8
binds | B9
binds | B10
binds | B11
binds | B12
binds | B13

Each binder was assayed against T1, TNF-beta (assay: phage ELISA).

binding result | Binder
no binding | B1
no binding | B2
no binding | B3
no binding | B4
no binding | B5
no binding | B6
no binding | B7
no binding | B14
no binding | B8
no binding | B9
no binding | B10
no binding | B11
no binding | B12
no binding | B13

These binders were tested against T2, Fas ligand (assay: phage ELISA).

binding result | Binder
no binding | B1
no binding | B2
no binding | B3
no binding | B4
no binding | B5
no binding | B6
no binding | B7
no binding | B14
no binding | B8
no binding | B9
no binding | B10
no binding | B11
no binding | B12
no binding | B13

These binders were tested against T4, TNF-alpha (human, UniProt P01375 77-233) (assay: phage ELISA).
T4 construct: also called TNFα; TNF-α
T4 sequence (P01375 77-233 limits assumed): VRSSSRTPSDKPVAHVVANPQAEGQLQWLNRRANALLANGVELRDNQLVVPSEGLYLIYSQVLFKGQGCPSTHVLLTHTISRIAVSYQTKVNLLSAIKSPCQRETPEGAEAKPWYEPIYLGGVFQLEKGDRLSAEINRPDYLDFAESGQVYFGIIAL

binding result | Binder
no binding | B1
no binding | B2
no binding | B3
no binding | B4
no binding | B5
no binding | B6
no binding | B7
no binding | B14
no binding | B8
no binding | B9
no binding | B10
no binding | B13

Each binder was assayed against T5, membrane-bound B Lymphocyte Stimulator on U937 plasma membrane preparations (human, UniProt Q9Y275 1-285) (assay: phage ELISA).
T5 construct: Natural protein in plasma membrane fractions of the human cell line U937 coated on ELISA plates; also called U937 plasma membranes; U937 membranes

binding result | Binder
binds | B1
binds | B2
binds | B3
binds | B4
binds | B5
binds | B6
binds | B7
binds | B8
binds | B9
binds | B10
binds | B11
binds | B12
binds | B13

What follows are binders tested against T6, TRAIL (human, UniProt P50591 114-281) (assay: phage ELISA).
T6 construct: also called TNF-related apoptosis inducing ligand
T6 sequence (P50591 114-281 limits assumed): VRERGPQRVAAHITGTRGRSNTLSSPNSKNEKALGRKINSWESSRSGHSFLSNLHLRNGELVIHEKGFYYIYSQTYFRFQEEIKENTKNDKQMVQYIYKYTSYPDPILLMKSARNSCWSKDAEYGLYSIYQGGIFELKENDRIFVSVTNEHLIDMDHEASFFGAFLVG

binding result | Binder
no binding | B1
no binding | B2
no binding | B3
no binding | B4
no binding | B5
no binding | B6
no binding | B7
no binding | B14
no binding | B8
no binding | B9
no binding | B10
no binding | B11
no binding | B12
no binding | B13
